Assay results taken from PMC7291599, “Defining the Threshold IL-2 Signal Required for Induction of Selective Treg Cell Responses Using Engineered IL-2 Muteins” (Frontiers in Immunology, 2020).
Substitutions are numbered along the chain they refer to. Names and notes keep the numbering of the source.

B1: IL-2 mutein D20A H16R E61Q (Fc fusion) (Fc fusion, human, UniProt P60568 21-153, looked up)
chain: APTSSSTKKTQLQLERLLLALQMILNGINNYKNPKLTRMLTFKFYMPKKATELKHLQCLEQELKPLEEVLNLAQSKNFHLRPRDLISNINVIVLELKGSETTFMCEYADETATIVEFLNRWITFCQSIISTLT
notes: human interleukin-2 (IL-2), fused to the Fc of human IgG1 (N297G); H16 is H36 in P60568); Homodimeric Fc fusion, bivalent for IL-2; source: CHO K1, stably integrated, purified from culture media (MabSelect SuRe, desalting, Superdex 200 SEC)
B2: IL-2 mutein V91K D20A M104V (Fc fusion) (Fc fusion, human, UniProt P60568 21-153, looked up)
chain: B1 chain with R16H, Q61E, V91K, M104V
notes: as for B1

The molecules below were run against T1, recombinant human IL2RB-huFc (human) (UniProt P14784) (assay: not given). Settings: not given.
T1 sequence (chain, minimally biotinylated): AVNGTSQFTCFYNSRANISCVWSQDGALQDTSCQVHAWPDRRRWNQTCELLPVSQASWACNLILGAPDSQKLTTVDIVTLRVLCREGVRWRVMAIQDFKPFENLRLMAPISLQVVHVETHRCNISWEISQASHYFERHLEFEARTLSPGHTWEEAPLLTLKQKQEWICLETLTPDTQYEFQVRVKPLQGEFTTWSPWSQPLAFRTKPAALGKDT
For “IL-2 mutein D20A (Fc fusion) (from UniProt P60568 21-153)”, the pSTAT5 MFI EC50 in CD25hi Foxp3+ Treg cells, human whole blood assay (AVG EC50, n = 3 donors) was 1.21 nM.
“IL-2 mutein N88K (Fc fusion) (from UniProt P60568 21-153)” gave a pSTAT5 MFI EC50 in CD25hi Foxp3+ Treg cells, human whole blood assay (AVG EC50, n = 3 donors) of 23.3 nM.
With “IL-2 mutein H16E M104L (Fc fusion) (from UniProt P60568 21-153)” the pSTAT5 MFI EC50 in CD25hi Foxp3+ Treg cells, human whole blood assay (AVG EC50, n = 3 donors) was 62 pM.
Work on “IL-2 mutein H16E (Fc fusion) (from UniProt P60568 21-153)” yielded a pSTAT5 MFI EC50 in CD25hi Foxp3+ Treg cells, human whole blood assay (AVG EC50, n = 3 donors) of 67 pM.
Molecule “IL-2 mutein D20A H16R E61Q (Fc fusion) (from UniProt P60568 21-153)” has a pSTAT5 MFI EC50 in CD25hi Foxp3+ Treg cells, human whole blood assay (AVG EC50, n = 3 donors) of 20.7 nM.
Work on “IL-2 mutein D20A M104T (Fc fusion) (from UniProt P60568 21-153)” yielded a pSTAT5 MFI EC50 in CD25hi Foxp3+ Treg cells, human whole blood assay (AVG EC50, n = 3 donors) of 1.67 nM.
“IL-2 mutein D20W (Fc fusion) (from UniProt P60568 21-153)” gave a pSTAT5 MFI EC50 in CD25hi Foxp3+ Treg cells, human whole blood assay (AVG EC50, n = 3 donors) of 20.9 nM.
Work on “IL-2 mutein H16E E61Q (Fc fusion) (from UniProt P60568 21-153)” yielded a pSTAT5 MFI EC50 in CD25hi Foxp3+ Treg cells, human whole blood assay (AVG EC50, n = 3 donors) of 2.34 nM.
Molecule “IL-2 mutein D20G (Fc fusion) (from UniProt P60568 21-153)” has a pSTAT5 MFI EC50 in CD25hi Foxp3+ Treg cells, human whole blood assay (AVG EC50, n = 3 donors) of 6.24 nM.
Molecule “IL-2 mutein V91S (Fc fusion) (from UniProt P60568 21-153)” has a pSTAT5 MFI EC50 in CD25hi Foxp3+ Treg cells, human whole blood assay (AVG EC50, n = 3 donors) of 89 pM.
For “IL-2 mutein V91K D20A M104V (Fc fusion) (from UniProt P60568 21-153)”, the pSTAT5 MFI EC50 in CD25hi Foxp3+ Treg cells, human whole blood assay (AVG EC50, n = 3 donors) was 4.76 nM.
For “IL-2 mutein N88D (Fc fusion) (from UniProt P60568 21-153)”, the pSTAT5 MFI EC50 in CD25hi Foxp3+ Treg cells, human whole blood assay (AVG EC50, n = 3 donors) was 0.418 nM.

What follows are molecules tested against T2, Recombinant CD25 protein (IL-2R alpha chain) (human, UniProt P01589 22-240) (assay: SPR; CD25 amine-coupled (EDC/NHS) to a CM5 chip, about 90 RU, Biacore T100; IL-2 Fc fusions as analytes, 3-fold series from 500 to 6.2 nM in PBS + 0.05% Tween-20, 75 uL/min; steady state RU levels fitted globally to a 4-parameter logistic function to derive EC50). Settings: both partners purified.
T2 construct: IL-2 receptor alpha chain (CD25, IL2RA), recombinant, R&D Systems cat #223-2A/CF; source: bought: R&D Systems (cat #223-2A/CF)
T2 sequence (looked up): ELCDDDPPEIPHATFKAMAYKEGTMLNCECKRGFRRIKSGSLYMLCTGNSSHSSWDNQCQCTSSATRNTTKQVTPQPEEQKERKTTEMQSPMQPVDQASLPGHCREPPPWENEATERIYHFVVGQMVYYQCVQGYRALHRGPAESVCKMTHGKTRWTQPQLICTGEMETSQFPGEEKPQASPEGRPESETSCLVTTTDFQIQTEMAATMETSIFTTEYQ
Work on B1 yielded an EC50 of 157 nM.
B2 was tested, and the EC50 was 6 nM.
